Source: patent publication US20020155547A1 (Biogen, published 2002)

T1: type I interferon cell surface receptor complex (IFNAR1/2 complex) expressed on Daudi Burkitt's lymphoma cells (human, UniProt P17181 28-557; P48551 27-515)
T1 construct: whole, on cells; Both chains together comprise the receptor for interferon-beta on the cells of the FACS assay; also called IFNAR1/2 cell surface receptor; cognate receptor on Daudi cells
T1 sequence (looked up) 1: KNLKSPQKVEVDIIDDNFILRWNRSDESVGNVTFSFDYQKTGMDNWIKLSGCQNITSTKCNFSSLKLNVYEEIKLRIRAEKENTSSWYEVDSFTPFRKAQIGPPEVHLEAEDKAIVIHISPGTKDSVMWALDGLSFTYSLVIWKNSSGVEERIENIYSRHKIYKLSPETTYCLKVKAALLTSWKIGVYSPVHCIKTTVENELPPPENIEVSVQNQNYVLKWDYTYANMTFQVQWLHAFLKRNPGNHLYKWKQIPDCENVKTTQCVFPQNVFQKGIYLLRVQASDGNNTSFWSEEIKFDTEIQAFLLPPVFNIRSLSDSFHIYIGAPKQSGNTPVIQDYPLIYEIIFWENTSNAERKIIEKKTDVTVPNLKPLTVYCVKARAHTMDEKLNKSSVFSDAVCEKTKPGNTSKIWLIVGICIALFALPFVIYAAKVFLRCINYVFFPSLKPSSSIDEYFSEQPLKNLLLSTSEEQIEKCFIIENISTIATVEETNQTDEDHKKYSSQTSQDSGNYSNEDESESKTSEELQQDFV
T1 sequence (looked up) 2: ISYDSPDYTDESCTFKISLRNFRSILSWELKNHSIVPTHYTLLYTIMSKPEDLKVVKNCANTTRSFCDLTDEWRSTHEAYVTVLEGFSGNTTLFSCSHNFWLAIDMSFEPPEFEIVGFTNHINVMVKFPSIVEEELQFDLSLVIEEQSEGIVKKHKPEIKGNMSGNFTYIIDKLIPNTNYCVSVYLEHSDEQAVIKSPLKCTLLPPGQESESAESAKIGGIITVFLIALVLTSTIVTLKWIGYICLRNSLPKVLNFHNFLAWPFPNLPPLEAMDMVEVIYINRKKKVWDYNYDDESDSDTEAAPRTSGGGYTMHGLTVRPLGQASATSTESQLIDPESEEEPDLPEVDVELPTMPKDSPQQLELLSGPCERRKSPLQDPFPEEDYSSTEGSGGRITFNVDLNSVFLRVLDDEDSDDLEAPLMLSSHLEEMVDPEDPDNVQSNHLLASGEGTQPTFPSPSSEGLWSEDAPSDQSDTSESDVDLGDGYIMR

T2: IFNAR2/Fc fusion protein (extracellular domain of the human IFNAR2 receptor chain fused to the hinge, CH2 and … (human, UniProt P48551 27-243))
T2 construct: extracellular domain; also called IFNAR2-ectodomain/Fc fusion protein; IFNAR/Fc; not shown: human IgG1 heavy chain constant region: hinge, CH2 and CH3 domains
T2 sequence (looked up): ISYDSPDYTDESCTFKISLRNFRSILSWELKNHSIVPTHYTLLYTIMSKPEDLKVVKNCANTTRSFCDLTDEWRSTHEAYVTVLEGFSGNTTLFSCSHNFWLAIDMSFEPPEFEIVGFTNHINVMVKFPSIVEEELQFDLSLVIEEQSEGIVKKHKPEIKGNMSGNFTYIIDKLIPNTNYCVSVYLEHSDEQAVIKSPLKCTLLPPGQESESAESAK


Assays:
[1] = target: T1, type I interferon cell surface receptor …; assay: FACS receptor binding assay on Daudi cells; wild type is the reference (100 %), its value is not given
Description: A second receptor binding assay was used to measure the affinity with which the interferon-beta mutants bound to Daudi cells expressing both receptor chains, IFNAR1 and IFNAR2, which together comprise the receptor for interferon-beta. This FACS-based assay used a blocking monoclonal antibody directed against the extracellular domain of IFNAR1, EA12 (Biogen, Inc.), to distinguish unoccupied (free) receptor from receptor to which interferon-beta was bound. Daudi cells (20 μl at 2.5×10⁷ cells/ml) were placed in 96-well V-bottom ELISA plates, and incubated for 1 hour at 4° C. with various concentrations of interferon-beta mutant (20 μl in FACS buffer; 5% FBS, 0.1% NaN₃ in PBS). Desirable serial dilutions of interferon-beta mutants ranged from 0.5 μM down to 0.5 pM. To each well was added 100 ng of biotinylated murine anti-IFNAR1 monoclonal antibody EA12 (10 μl), and the plates incubated for an additional 2 minutes at room temperature before being washed twice with FACS buffer (4° C.). […] The samples were then analyzed by flow cytometry on a FACScan (Becton Dickinson). […]

[2] = target: T2, IFNAR2/Fc fusion protein (extracellular …); assay: ELISA on captured IFNAR2-Fc; wild type is the reference (100 %), its EC50 is not given
Description: The receptor binding properties of the Interferon-beta mutants described in C were assessed using two different binding assays. One assay measured binding of the interferon-beta mutants to a fusion protein, IFNAR2/Fc, comprising the extracellular domain of the human IFNAR2 receptor chain fused to part of the constant region of a human IgG. IFNAR2-Fc was expressed in chinese hamster ovary (CHO) cells and purified by protein A sepharose affinity chromatography according to the instructions of the manufacturer (Pierce Chem. Co., Rockford, Ill., catalog #20334). The binding of interferon-beta mutants to IFNAR2-Fc was measured in an ELISA format assay. […] Binding of the interferon-beta mutants to IFNAR2-Fc was measured by adding 50 μl/well mutant interferon-beta in conditioned media, serially diluted in Dulbecco's Modified Eagle's Medium (DMEM) supplemented with 10% fetal bovine serum, and incubating for 2 hours at 4° C. […] After washing, interferon-beta bound to the plates was detected by adding 50 μl/well of a cocktail consisting of a 1:1000 dilution of a rabbit polyclonal anti-interferon antibody (#447, Biogen, Inc.) plus horseradish peroxidase (HRP)-labelled donkey anti-rabbit IgG (Jackson ImmunoResearch), and incubating for 15 minutes at 4° C. […]

[3] = target: T2, IFNAR2/Fc fusion protein (extracellular …); assay: ELISA, IFNAR2-Fc captured on anti-human IgG1 antibody, mutant in conditioned medium
Description: The receptor binding properties of the Interferon-beta mutants described in C were assessed using two different binding assays. One assay measured binding of the interferon-beta mutants to a fusion protein, IFNAR2/Fc, comprising the extracellular domain of the human IFNAR2 receptor chain fused to part of the constant region of a human IgG. IFNAR2-Fc was expressed in chinese hamster ovary (CHO) cells and purified by protein A sepharose affinity chromatography according to the instructions of the manufacturer (Pierce Chem. Co., Rockford, Ill., catalog #20334). The binding of interferon-beta mutants to IFNAR2-Fc was measured in an ELISA format assay. ELISA plates were prepared by coating flat-bottomed 96 well plates overnight at 4° C. with 50 μl/well of mouse anti-human IgG1 monoclonal antibody (CDG5-AA9, Biogen, Inc.) at 10 μg/ml in coating buffer (50 mM NaHCO₃, 0.2 mM MgCl₂, 0.2 mM CaCl₂, pH 9.6). Plates were washed twice with PBS containing 0.05% Tween-20, and blocked with 0.5% non-fat dry milk in PBS for 1 hour at room temperature. After two more washes, 50 μl of 1 μg/ml IFNAR2-Fc in 0.5% milk in PBS containing 0.05% Tween-20 was added to each well and incubated for 1 hour at room temperature, and the plates were then washed twice more. Binding of the interferon-beta mutants to IFNAR2-Fc was measured by adding 50 μl/well mutant interferon-beta in conditioned media, serially diluted in Dulbecco's Modified Eagle's Medium (DMEM) supplemented with 10% fetal bovine serum, and incubating for 2 hours at 4° C. Dilutions of interferon-beta mutant typically ranged from approximately 1 μM down to 10 pM. After washing, interferon-beta bound to the plates was detected by adding 50 μl/well of a cocktail consisting of a 1:1000 dilution of a rabbit polyclonal anti-interferon antibody (#447, Biogen, Inc.) plus horseradish peroxidase (HRP)-labelled donkey anti-rabbit IgG (Jackson ImmunoResearch), and incubating for 15 minutes at 4° C. After two washes, HRP substrate was added, and the plate was incubated at 4° C. before being read on an ELISA plate reader at an absorbance of 450 nm. Data were plotted as absorbance versus the concentration of mutant interferon-beta, and the affinity for the binding of the mutant interferon-beta to IFNAR2-Fc was determined by fitting the data to a simple hyperbolic binding equation.

[4] = target: T2, IFNAR2/Fc fusion protein (extracellular …); assay: ELISA on captured IFNAR2-Fc
Description: FIG. 3. Binding of alanine substituted interferon-beta mutants to a dimeric fusion protein comprised of the extracellular domain of the type I interferon receptor chain, IFNAR2/Fc. The binding affinities of the alanine substituted IFN mutants (A1-E) for the IFNAR2 receptor chain were determined as described in Example 1 (subsection D). The histogram presents their binding affinities in this assay relative to wild type his-IFN-beta (% w.t.). The % w. t. values were calculated as the (affinity of wild type his-IFN-beta)/(affinity of mutant IFN-beta)×100. The % w. t. (x) for multiple assays (n=3) and an average % w.t. (x) for the experimental set are shown.
The receptor binding properties of the Interferon-beta mutants described in C were assessed using two different binding assays. One assay measured binding of the interferon-beta mutants to a fusion protein, IFNAR2/Fc, comprising the extracellular domain of the human IFNAR2 receptor chain fused to part of the constant region of a human IgG. IFNAR2-Fc was expressed in chinese hamster ovary (CHO) cells and purified by protein A sepharose affinity chromatography according to the instructions of the manufacturer (Pierce Chem. Co., Rockford, Ill., catalog #20334). The binding of interferon-beta mutants to IFNAR2-Fc was measured in an ELISA format assay. ELISA plates were prepared by coating flat-bottomed 96 well plates overnight at 4° C. with 50 μl/well of mouse anti-human IgG1 monoclonal antibody (CDG5-AA9, Biogen, Inc.) at 10 μg/ml in coating buffer (50 mM NaHCO₃, 0.2 mM MgCl₂, 0.2 mM CaCl₂, pH 9.6). Plates were washed twice with PBS containing 0.05% Tween-20, and blocked with 0.5% non-fat dry milk in PBS for 1 hour at room temperature. After two more washes, 50 μl of 1 μg/ml IFNAR2-Fc in 0.5% milk in PBS containing 0.05% Tween-20 was added to each well and incubated for 1 hour at room temperature, and the plates were then washed twice more.

Binder	binding result [1]	binding result [2]	binding result [3]	concentration tested relative to the w.t. his-IFN-beta EC50 [4]
histidine tagged wild-type interferon-beta-1a (ligand, glycosylated at Asn 80 of the interferon-beta moiety (expressed in human EBNA 293 cells), Tested as conditioned medium of transfected EBNA 293 cells; also called his IFN-beta; His6-tagged) SGGHHHHHHSSGDDDDKMSYNLLGFLQRSSNFQCQKLLWQLNGRLEYCLKDRMNFDIPEEIKQLQQFQKEDAALTIYEMLQNIFAIFRQDSSSTGWNETIVENLLANVYHQINHLKTVLEEKLEKEDFTRGKLMSSLHLKRYYGRILHYLKAKEYSHCAWTIVRVEILRNFYFINRLTGYLRN	binds	binds	–	–
his tagged interferon-beta alanine substitution mutant AB1 (ligand, glycosylated at Asn 80 of the interferon-beta moiety) SGGHHHHHHSSGDDDDKMSYNLLGFLQRSSNFQCQKLLWQLNGRAAACAADRMNFDIPEEIKQLQQFQKEDAALTIYEMLQNIFAIFRQDSSSTGWNETIVENLLANVYHQINHLKTVLEEKLEKEDFTRGKLMSSLHLKRYYGRILHYLKAKEYSHCAWTIVRVEILRNFYFINRLTGYLRN	–	–	no binding	500 fold
his tagged interferon-beta alanine substitution mutant AB2 (ligand, glycosylated at Asn 80 of the interferon-beta moiety) SGGHHHHHHSSGDDDDKMSYNLLGFLQRSSNFQCQKLLWQLNGRLEYCLKDRAAFAIPAEIKQLQQFQKEDAALTIYEMLQNIFAIFRQDSSSTGWNETIVENLLANVYHQINHLKTVLEEKLEKEDFTRGKLMSSLHLKRYYGRILHYLKAKEYSHCAWTIVRVEILRNFYFINRLTGYLRN	–	–	no binding	500 fold
his tagged interferon-beta alanine substitution mutant E (ligand, glycosylated at Asn 80 of the interferon-beta moiety, also called E helix) SGGHHHHHHSSGDDDDKMSYNLLGFLQRSSNFQCQKLLWQLNGRLEYCLKDRMNFDIPEEIKQLQQFQKEDAALTIYEMLQNIFAIFRQDSSSTGWNETIVENLLANVYHQINHLKTVLEEKLEKEDFTRGKLMSSLHLKRYYGRILHYLKAKEYSHCAWTIVRAEILANFAFIARLTGYLRN	–	–	no binding	500 fold
his tagged interferon-beta alanine substitution mutant A2 (ligand, glycosylated at Asn 80 of the interferon-beta moiety, also called A2 helix) SGGHHHHHHSSGDDDDKMSYNLLGFLQRSSNAACAALLAALNGRLEYCLKDRMNFDIPEEIKQLQQFQKEDAALTIYEMLQNIFAIFRQDSSSTGWNETIVENLLANVYHQINHLKTVLEEKLEKEDFTRGKLMSSLHLKRYYGRILHYLKAKEYSHCAWTIVRVEILRNFYFINRLTGYLRN	–	–	no binding	500 fold
